Columns and labels:
[1] = biological target: T1, GST-fused Dyn2 (UniProt P50570 1-870); assay: cell-based or functional assay
T1 sequence (looked up): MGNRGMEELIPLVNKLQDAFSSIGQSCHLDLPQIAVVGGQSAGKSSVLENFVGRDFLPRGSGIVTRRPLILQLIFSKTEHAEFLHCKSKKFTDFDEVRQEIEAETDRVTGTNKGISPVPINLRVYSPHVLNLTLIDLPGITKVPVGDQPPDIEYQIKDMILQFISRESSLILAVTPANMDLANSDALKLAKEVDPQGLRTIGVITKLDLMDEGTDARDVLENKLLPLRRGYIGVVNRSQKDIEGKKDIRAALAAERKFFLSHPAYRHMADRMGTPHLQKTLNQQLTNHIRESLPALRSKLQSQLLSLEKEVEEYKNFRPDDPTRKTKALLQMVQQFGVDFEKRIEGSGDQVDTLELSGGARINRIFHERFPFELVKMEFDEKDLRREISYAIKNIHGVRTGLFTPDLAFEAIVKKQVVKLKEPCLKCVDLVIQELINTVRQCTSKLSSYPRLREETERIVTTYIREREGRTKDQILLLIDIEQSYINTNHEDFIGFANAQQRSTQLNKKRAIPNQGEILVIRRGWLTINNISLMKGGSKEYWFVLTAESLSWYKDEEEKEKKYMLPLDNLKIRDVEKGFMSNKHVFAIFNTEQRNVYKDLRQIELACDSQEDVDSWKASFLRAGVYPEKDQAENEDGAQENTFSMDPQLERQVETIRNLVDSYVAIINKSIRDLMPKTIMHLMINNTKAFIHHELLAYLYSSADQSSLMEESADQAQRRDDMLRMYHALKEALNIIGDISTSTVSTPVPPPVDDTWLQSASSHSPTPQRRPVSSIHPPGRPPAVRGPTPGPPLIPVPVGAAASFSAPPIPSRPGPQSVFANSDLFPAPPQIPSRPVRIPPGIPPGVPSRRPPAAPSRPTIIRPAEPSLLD

[2] = biological target: T2, GST-Dyn2 F5 (GTPase+middle+PH+GED domains); assay: cell-based or functional assay
T2 chain: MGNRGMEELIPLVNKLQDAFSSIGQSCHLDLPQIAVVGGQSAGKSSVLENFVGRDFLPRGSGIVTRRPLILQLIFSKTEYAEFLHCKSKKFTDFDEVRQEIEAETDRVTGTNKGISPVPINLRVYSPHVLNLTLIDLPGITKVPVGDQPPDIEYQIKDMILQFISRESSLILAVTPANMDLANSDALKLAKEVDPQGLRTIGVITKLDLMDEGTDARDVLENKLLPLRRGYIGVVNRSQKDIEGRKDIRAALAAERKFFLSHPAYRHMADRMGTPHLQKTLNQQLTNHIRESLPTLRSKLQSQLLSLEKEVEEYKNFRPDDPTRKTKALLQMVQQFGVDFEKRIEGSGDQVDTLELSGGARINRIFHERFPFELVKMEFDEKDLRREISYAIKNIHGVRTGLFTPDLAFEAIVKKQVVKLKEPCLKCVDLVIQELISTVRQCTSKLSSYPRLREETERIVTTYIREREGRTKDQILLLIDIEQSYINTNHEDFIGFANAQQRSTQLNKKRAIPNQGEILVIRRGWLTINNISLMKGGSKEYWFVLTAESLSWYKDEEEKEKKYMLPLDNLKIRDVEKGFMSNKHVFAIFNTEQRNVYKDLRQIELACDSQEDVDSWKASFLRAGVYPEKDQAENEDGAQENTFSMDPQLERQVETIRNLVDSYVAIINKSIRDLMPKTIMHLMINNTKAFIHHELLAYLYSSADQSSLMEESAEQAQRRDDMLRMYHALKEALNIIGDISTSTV

- radioactive GTPase assay: hydrolysis of GTP into GDP by Dyn2 oligomers (low salt) with against without Ndel1, over 60 minutes [1]: ~2 fold
- non-radioactive (ELIPA) GTPase assay of F5 with against without Ndel1 [2]: ~1.3 fold
B1: His-tagged Ndel1 (natural protein, UniProt Q9GZM8 1-345, looked up)
chain: MDGEDIPDFSSLKEETAYWKELSLKYKQSFQEARDELVEFQEGSRELEAELEAQLVQAEQRNRDLQADNQRLKYEVEALKEKLEHQYAQSYKQVSVLEDDLSQTRAIKEQLHKYVRELEQANDDLERAKRATIVSLEDFEQRLNQAIERNAFLESELDEKESLLVSVQRLKDEARDLRQELAVRERQQEVTRKSAPSSPTLDCEKMDSAVQASLSLPATPVGKGTENTFPSPKAIPNGFGTSPLTPSARISALNIVGDLLRKVGALESKLAACRNFAKDQASRKSYISGNVNCGVLNGNGTKFSRSGHTSFFDKGAVNGFDPAPPPPGLGSSRPSSAPGMLPLSV

From article PMC3026782, “The Cytoskeletal Protein Ndel1 Regulates Dynamin 2 GTPase Activity” (PLoS ONE, 2011)
